Experimental data as given in the supplement of paper PMC9112550, “Optimization of the antimicrobial peptide Bac7 by deep mutational scanning” (BMC Biology, 2022).

test system: Escherichia coli TOP10; test: shrunken log2 fold change of peptide-encoding DNA abundance (4.5 h post-induction vs induction); higher = less antimicrobial activity (less host growth inhibition); details: time post-induction: 4.5 h; library: site-saturation at positions 5, 18, 19, 20
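Further: peptides expressed intracellularly from a pBAD plasmid library in pooled LB shake-flask culture, induced with 0.3% L-arabinose, DNA abundance read by NGS, three biological replicates, DESeq2 with apeglm shrinkage.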

| Sequence | shrunken log2 fold change |
| --- | --- |
| RRIRQRPPRLPRPRPRPVWQPRP | 0.232 |
| RRIRKRPPRLPRPRPRPYNMPRP | -0.352 |
| RRIRYRPPRLPRPRPRPYKPPRP | -0.0475 |
| RRIRNRPPRLPRPRPRPFSQPRP | -0.021 |
| RRIRSRPPRLPRPRPRPYCIPRP | -0.26 |
| RRIRPRPPRLPRPRPRPNHRPRP | -0.11 |
| RRIRLRPPRLPRPRPRPHTRPRP | -0.0601 |
| RRIRVRPPRLPRPRPRPCYAPRP | -0.162 |
| RRIRHRPPRLPRPRPRPQARPRP | 0.225 |
| RRIRSRPPRLPRPRPRPVIEPRP | -0.186 |
| RRIRARPPRLPRPRPRPTPPPRP | 0.811 |
| RRIRRRPPRLPRPRPRPFVRPRP | -0.174 |
| RRIRWRPPRLPRPRPRPQWWPRP | 0.00856 |
| RRIRRRPPRLPRPRPRPYYGPRP | -0.132 |
| RRIRGRPPRLPRPRPRPNLMPRP | 0.144 |
| RRIRVRPPRLPRPRPRPEQNPRP | 0.316 |
| RRIRKRPPRLPRPRPRPYVFPRP | -0.0884 |
| RRIRPRPPRLPRPRPRPYDDPRP | -0.0211 |
| RRIRRRPPRLPRPRPRPKYFPRP | 0.162 |
| RRIRPRPPRLPRPRPRPLVDPRP | 0.111 |
| RRIRHRPPRLPRPRPRPTWSPRP | 0.0859 |
| RRIRCRPPRLPRPRPRPQAWPRP | -0.23 |
| RRIRSRPPRLPRPRPRPSEWPRP | 0.0157 |
| RRIRPRPPRLPRPRPRPGTDPRP | 0.119 |
| RRIRCRPPRLPRPRPRPSALPRP | -0.0403 |

| Sequence | shrunken log2 fold change |
| --- | --- |
| RRIRVRPPRLPRPRPRPSIAPRP | -0.0218 |
| RRIRFRPPRLPRPRPRPGSHPRP | -0.225 |
| RRIRKRPPRLPRPRPRPYYNPRP | -0.197 |
| RRIRTRPPRLPRPRPRPMTSPRP | -0.168 |
| RRIRGRPPRLPRPRPRPCWRPRP | 0.248 |
| RRIRTRPPRLPRPRPRPLLSPRP | 0.0198 |
| RRIRSRPPRLPRPRPRPCYHPRP | -0.297 |
| RRIRYRPPRLPRPRPRPTDMPRP | 0.00219 |
| RRIRTRPPRLPRPRPRPHGMPRP | -0.157 |
| RRIRQRPPRLPRPRPRPHQFPRP | 0.0486 |
| RRIRYRPPRLPRPRPRPHYEPRP | -1.49 |
| RRIRMRPPRLPRPRPRPRFPPRP | 0.573 |
| RRIRGRPPRLPRPRPRPGCMPRP | 0.898 |
| RRIRRRPPRLPRPRPRPAFMPRP | 0.169 |
| RRIRWRPPRLPRPRPRPEQRPRP | 0.248 |
| RRIRWRPPRLPRPRPRPGTGPRP | 0.188 |
| RRIRMRPPRLPRPRPRPHGRPRP | -0.0383 |
| RRIRWRPPRLPRPRPRPVWCPRP | 0.0155 |
| RRIRSRPPRLPRPRPRPCKAPRP | 0.00989 |
| RRIRKRPPRLPRPRPRPAGSPRP | 0.0961 |
| RRIRRRPPRLPRPRPRPAQMPRP | 0.161 |
| RRIRCRPPRLPRPRPRPAAWPRP | 0.252 |
| RRIRQRPPRLPRPRPRPWGQPRP | 0.000222 |
| RRIRDRPPRLPRPRPRPAYGPRP | -0.11 |
| RRIRKRPPRLPRPRPRPIADPRP | -0.125 |

| Sequence | shrunken log2 fold change |
| --- | --- |
| RRIRPRPPRLPRPRPRPQMQPRP | -0.254 |
| RRIRCRPPRLPRPRPRPLWIPRP | -0.166 |
| RRIRRRPPRLPRPRPRPTRFPRP | 1.08 |
| RRIRERPPRLPRPRPRPDTKPRP | -0.00108 |
| RRIRIRPPRLPRPRPRPNGPPRP | 0.00676 |
| RRIRARPPRLPRPRPRPKRMPRP | 0.258 |
| RRIRVRPPRLPRPRPRPDRQPRP | -0.215 |
| RRIRSRPPRLPRPRPRPSILPRP | -0.235 |
| RRIRLRPPRLPRPRPRPVCCPRP | -0.185 |
| RRIRDRPPRLPRPRPRPKCEPRP | -0.351 |
| RRIRSRPPRLPRPRPRPQEHPRP | -0.112 |
| RRIRARPPRLPRPRPRPTEFPRP | 0.368 |
| RRIRERPPRLPRPRPRPPISPRP | 0.0892 |
| RRIRGRPPRLPRPRPRPHISPRP | -0.0962 |
| RRIRRRPPRLPRPRPRPQIDPRP | 0.332 |
| RRIRERPPRLPRPRPRPGFIPRP | -0.256 |
| RRIRMRPPRLPRPRPRPDTQPRP | 0.393 |
| RRIRPRPPRLPRPRPRPVEYPRP | -0.156 |
| RRIRRRPPRLPRPRPRPYNQPRP | -0.207 |
| RRIRIRPPRLPRPRPRPFWEPRP | 0.366 |
| RRIRCRPPRLPRPRPRPLNSPRP | -0.605 |
| RRIRPRPPRLPRPRPRPLGIPRP | -0.0635 |
| RRIRDRPPRLPRPRPRPWGNPRP | -0.0163 |
| RRIRQRPPRLPRPRPRPMPIPRP | 0.0245 |
| RRIRWRPPRLPRPRPRPQRAPRP | 0.66 |
